Reference: the Human Domainome abundance scans (Beltran et al. 2025)
± gives the uncertainty stated by the source.

B1: Segment polarity protein dishevelled homolog DVL-3, residues 2 to 81; numbered along this chain, Q92997 (parent)
chain: GETKIIYHLDGQETPYLVKLPLPAERVTLADFKGVLQRPSYKFFFKSMDDDFGVVKEEISDDNAKLPCFNGRVVSWLVSA

Variants of: B1
Test: abundance fitness (aPCA) (normalised: wild type 0, dead -1); higher = more abundant; growth selection in yeast, the domain comes from the species named
Conditions: Homo sapiens

Compared with N63T, K19G is lower in abundance fitness: -0.119 ± 0.061 for the first, -0.635 ± 0.069 for the second.

Going from V18Q to G1Y, the abundance fitness rises from -0.872 ± 0.15 to -0.124 ± 0.21.

V54E and E57M are within error of each other in abundance fitness: 0.192 ± 0.052 for the first, 0.292 ± 0.061 for the second.

P67A and L36C are within error of each other in abundance fitness: -0.841 ± 0.12 for the first, -0.563 ± 0.23 for the second.

First: R72Q
Second: W76M
The abundance fitness of the first is higher: 0.243 ± 0.12 for the first, -0.678 ± 0.13 for the second.

L29A and V54R are within error of each other in abundance fitness: -0.639 ± 0.089 for the first, -0.556 ± 0.064 for the second.

First: L9F
Second: G1Q
The abundance fitness of the first is lower: -0.575 ± 0.14 for the first, -0.035 ± 0.16 for the second.

Compared with D51Y, G34A is higher in abundance fitness: -0.224 ± 0.097 for the first, 0.174 ± 0.053 for the second.

Going from D51Q to V35Q, the abundance fitness falls from 0.158 ± 0.084 to -0.218 ± 0.085.

First: S75C
Second: P39Y
The abundance fitness of the first is higher: 0.099 ± 0.05 for the first, -0.494 ± 0.18 for the second.

P39T and S40Q are within error of each other in abundance fitness: 0.062 ± 0.069 for the first, 0.004 ± 0.076 for the second.

First: F45S
Second: D49C
The abundance fitness of the first is lower: -0.856 ± 0.11 for the first, 0.013 ± 0.075 for the second.

D62T and G71Y are within error of each other in abundance fitness: -0.906 ± 0.17 for the first, -0.64 ± 0.11 for the second.

Y16Q and C68S are within error of each other in abundance fitness: 0.16 ± 0.062 for the first, 0.081 ± 0.051 for the second.

Y16S and F69Q are within error of each other in abundance fitness: -0.213 ± 0.062 for the first, -0.423 ± 0.22 for the second.

K19C and G53T are within error of each other in abundance fitness: -0.024 ± 0.073 for the first, 0.092 ± 0.058 for the second.

E13R and V54Y are within error of each other in abundance fitness: -0.092 ± 0.053 for the first, -0.088 ± 0.12 for the second.

First: I5R
Second: N70E
The abundance fitness of the first is lower: -0.784 ± 0.069 for the first, -0.001 ± 0.1 for the second.

First: I5M
Second: S40F
The abundance fitness of the first is lower: -0.803 ± 0.12 for the first, -0.157 ± 0.11 for the second.

Compared with L77C, D10A is lower in abundance fitness: -0.29 ± 0.081 for the first, -0.513 ± 0.08 for the second.

G71F and W76T are within error of each other in abundance fitness: -0.725 ± 0.12 for the first, -0.579 ± 0.1 for the second.

Going from M48S to H8G, the abundance fitness falls from 0.283 ± 0.047 to -0.668 ± 0.081.

First: E58D
Second: G34Y
The abundance fitness of the first is lower: -0.942 ± 0.19 for the first, -0.388 ± 0.14 for the second.

K65N and E2M are within error of each other in abundance fitness: -0.139 ± 0.12 for the first, -0.281 ± 0.093 for the second.

S40P and V35I are within error of each other in abundance fitness: -0.261 ± 0.089 for the first, -0.141 ± 0.1 for the second.

First: N63R
Second: D61G
The abundance fitness of the first is higher: -0.238 ± 0.042 for the first, -0.791 ± 0.068 for the second.

F44L and S79H are within error of each other in abundance fitness: -0.351 ± 0.062 for the first, -0.466 ± 0.16 for the second.

Going from V35M to V54A, the abundance fitness rises from -0.25 ± 0.086 to 0.005 ± 0.056.

Going from S75L to C68T, the abundance fitness rises from -0.463 ± 0.093 to 0.103 ± 0.079.

F43T and Y7Q are within error of each other in abundance fitness: -0.695 ± 0.13 for the first, -0.975 ± 0.19 for the second.

G53L and L66F are within error of each other in abundance fitness: -0.321 ± 0.058 for the first, -0.461 ± 0.16 for the second.

Going from K42T to K33P, the abundance fitness falls from -0.356 ± 0.093 to -1.13 ± 0.24.

Going from N70F to G71T, the abundance fitness falls from -0.449 ± 0.077 to -0.919 ± 0.19.

S60R and L17R are within error of each other in abundance fitness: -0.273 ± 0.045 for the first, -0.337 ± 0.054 for the second.

Compared with A64G, K19A is higher in abundance fitness: -0.647 ± 0.067 for the first, -0.143 ± 0.059 for the second.

First: K19S
Second: A24S
The abundance fitness of the first is higher: 0.157 ± 0.05 for the first, -0.03 ± 0.056 for the second.

Compared with F45K, D49Q is higher in abundance fitness: -0.934 ± 0.15 for the first, -0.053 ± 0.089 for the second.

Compared with T28S, Q37L is higher in abundance fitness: -0.757 ± 0.099 for the first, -0.154 ± 0.049 for the second.

Compared with S40R, K56R is higher in abundance fitness: -0.254 ± 0.05 for the first, 0.041 ± 0.038 for the second.

Going from A24W to I59C, the abundance fitness falls from -0.235 ± 0.08 to -0.593 ± 0.13.

Compared with D62P, K56H is higher in abundance fitness: -0.575 ± 0.11 for the first, -0.216 ± 0.1 for the second.

First: Y16L
Second: L36G
The abundance fitness of the first is higher: 0.025 ± 0.049 for the first, -0.993 ± 0.11 for the second.

First: L77A
Second: V27I
The abundance fitness of the first is lower: -1.11 ± 0.2 for the first, 0.003 ± 0.1 for the second.

First: F52C
Second: D49A
The abundance fitness of the first is higher: 0.351 ± 0.086 for the first, 0.018 ± 0.052 for the second.

First: L17H
Second: H8V
The abundance fitness of the first is higher: 0.335 ± 0.091 for the first, -0.494 ± 0.075 for the second.

First: V55F
Second: V74R
The abundance fitness of the first is higher: 0.204 ± 0.083 for the first, -0.446 ± 0.1 for the second.

K56F and D50P are within error of each other in abundance fitness: -0.009 ± 0.082 for the first, -0.016 ± 0.06 for the second.

Going from E13L to L66T, the abundance fitness falls from -0.42 ± 0.072 to -0.772 ± 0.14.

E2H and P39R are within error of each other in abundance fitness: -0.164 ± 0.1 for the first, -0.037 ± 0.046 for the second.

V27P and D61A are within error of each other in abundance fitness: -0.656 ± 0.14 for the first, -0.578 ± 0.074 for the second.

Y7D and V18S are within error of each other in abundance fitness: -0.947 ± 0.19 for the first, -0.906 ± 0.11 for the second.

First: R38N
Second: S40M
The abundance fitness of the first is higher: 0.255 ± 0.085 for the first, 0.098 ± 0.064 for the second.

First: S47D
Second: S60D
The abundance fitness of the first is lower: -0.658 ± 0.15 for the first, -0.32 ± 0.098 for the second.

V27G and Y16A are within error of each other in abundance fitness: -0.675 ± 0.063 for the first, -0.593 ± 0.086 for the second.

Compared with K42R, S60L is lower in abundance fitness: 0.158 ± 0.042 for the first, -0.502 ± 0.084 for the second.

Compared with K33N, T3L is lower in abundance fitness: -0.087 ± 0.14 for the first, -0.727 ± 0.083 for the second.

Compared with V27K, Y7W is lower in abundance fitness: -0.469 ± 0.11 for the first, -0.869 ± 0.14 for the second.

First: I6S
Second: E57K
The abundance fitness of the first is lower: -0.431 ± 0.073 for the first, 0.502 ± 0.052 for the second.

D61L and E2G are within error of each other in abundance fitness: -0.763 ± 0.1 for the first, -0.62 ± 0.068 for the second.

K33R and S75E are within error of each other in abundance fitness: -0.693 ± 0.083 for the first, -0.782 ± 0.22 for the second.

Compared with F45W, D51H is higher in abundance fitness: -0.605 ± 0.097 for the first, 0.058 ± 0.079 for the second.

Going from P67L to D31R, the abundance fitness rises from -0.94 ± 0.13 to -0.711 ± 0.093.

L77S and T3I are within error of each other in abundance fitness: -0.831 ± 0.11 for the first, -0.962 ± 0.25 for the second.

P21T and Y16D are within error of each other in abundance fitness: -0.592 ± 0.1 for the first, -0.708 ± 0.17 for the second.

First: Q37A
Second: V73D
The abundance fitness of the first is higher: -0.1 ± 0.051 for the first, -0.501 ± 0.1 for the second.

V18N and V78F are within error of each other in abundance fitness: -0.329 ± 0.12 for the first, -0.162 ± 0.079 for the second.

Going from M48Y to E2R, the abundance fitness falls from 0.175 ± 0.081 to -0.579 ± 0.072.

E57A and S47Q are within error of each other in abundance fitness: -0.121 ± 0.056 for the first, -0.212 ± 0.086 for the second.

Compared with A80H, L17G is lower in abundance fitness: -0.089 ± 0.15 for the first, -0.434 ± 0.061 for the second.

L22G and F43I are within error of each other in abundance fitness: -0.856 ± 0.083 for the first, -0.611 ± 0.17 for the second.

Compared with V73N, P67W is lower in abundance fitness: -0.569 ± 0.11 for the first, -1.01 ± 0.17 for the second.

Compared with E13N, L77E is lower in abundance fitness: -0.222 ± 0.08 for the first, -0.915 ± 0.24 for the second.

Going from R38D to V73Y, the abundance fitness falls from 0.284 ± 0.1 to -0.909 ± 0.15.

F43H and P67H are within error of each other in abundance fitness: -0.799 ± 0.32 for the first, -0.874 ± 0.34 for the second.

Going from R26A to I59Q, the abundance fitness falls from 0.027 ± 0.053 to -1.11 ± 0.17.

First: K46G
Second: L20M
The abundance fitness of the first is higher: -0.223 ± 0.053 for the first, -0.679 ± 0.13 for the second.

Going from S60M to I6P, the abundance fitness falls from -0.199 ± 0.078 to -0.816 ± 0.17.

Compared with G11R, P23W is lower in abundance fitness: -0.435 ± 0.059 for the first, -0.863 ± 0.14 for the second.

First: Q37M
Second: G53S
The abundance fitness of the first is lower: -0.048 ± 0.078 for the first, 0.153 ± 0.05 for the second.

Going from Y16H to I5W, the abundance fitness falls from 0.23 ± 0.082 to -0.625 ± 0.073.

First: G1P
Second: S60P
The abundance fitness of the first is higher: 0.022 ± 0.24 for the first, -0.922 ± 0.16 for the second.

Going from K56N to K46N, the abundance fitness rises from -0.678 ± 0.22 to -0.046 ± 0.1.

G71D and F44D are within error of each other in abundance fitness: -0.482 ± 0.11 for the first, -0.749 ± 0.18 for the second.

With P39N the abundance fitness was 0.061 ± 0.11.
